Measured values from paper doi:10.1101/2020.08.14.246132 (bioRxiv, 2020).

Biological target: DPP9, short isoform (His-TEV-DPP9), co-expressed with NLRP1ΔΔ for cryo-EM (human, UniProt Q86TI2-1 1-863)
Assay: cryo-EM structure

DPP9, short isoform (His-TEV-DPP9), co-expressed with NLRP1ΔΔ for cryo-EM, sequence (Q86TI2 whole entry, stated change not applied, canonical isoform): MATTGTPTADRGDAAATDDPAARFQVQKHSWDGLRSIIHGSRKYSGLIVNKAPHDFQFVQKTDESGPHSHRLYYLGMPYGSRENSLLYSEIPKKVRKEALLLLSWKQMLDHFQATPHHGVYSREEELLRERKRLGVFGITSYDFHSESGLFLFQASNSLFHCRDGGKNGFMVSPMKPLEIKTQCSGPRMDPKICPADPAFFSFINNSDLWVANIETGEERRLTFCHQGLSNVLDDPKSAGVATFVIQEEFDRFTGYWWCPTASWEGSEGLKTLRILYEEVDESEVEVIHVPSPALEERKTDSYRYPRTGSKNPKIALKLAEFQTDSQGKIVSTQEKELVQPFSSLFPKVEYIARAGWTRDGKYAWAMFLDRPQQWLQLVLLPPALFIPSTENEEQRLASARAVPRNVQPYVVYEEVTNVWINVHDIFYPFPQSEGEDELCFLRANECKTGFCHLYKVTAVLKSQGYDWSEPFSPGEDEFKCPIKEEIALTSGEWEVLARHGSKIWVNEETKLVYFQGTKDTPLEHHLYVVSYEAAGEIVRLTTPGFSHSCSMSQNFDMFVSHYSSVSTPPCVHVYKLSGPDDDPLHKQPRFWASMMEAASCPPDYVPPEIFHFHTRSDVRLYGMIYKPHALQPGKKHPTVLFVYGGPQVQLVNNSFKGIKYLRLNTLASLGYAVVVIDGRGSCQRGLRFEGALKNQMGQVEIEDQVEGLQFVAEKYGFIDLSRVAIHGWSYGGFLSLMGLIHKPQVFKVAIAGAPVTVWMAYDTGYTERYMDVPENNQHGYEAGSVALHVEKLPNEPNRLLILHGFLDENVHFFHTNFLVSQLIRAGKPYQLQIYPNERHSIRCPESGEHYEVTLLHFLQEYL

B1: NLRP1-CT freed from NLRP1ΔΔ (UPA subdomain only), molecule B of the NLRP1^A-NLRP1^B-DPP9 ternary complex (domain or fragment, human, UniProt Q9C000-1 1213-1364, looked up)
chain: SPLGVLLKMIHNALRFIPVTSVVLLYHRVHPEEVTFHLYLIPSDCSIRKAIDDLEMKFQFVRIHKPPPLTPLYMGCRYTVSGSGSGMLEILPKELELCYRSPGEDQLFSEFYVGHLGSGIRLQVKDKKDETLVWEALVKPGDLMPATTLIPP
B1: binds.
